Assay results taken from PMC8899823 (Science translational medicine, 2022).

How the values were obtained:
SARS-CoV-2 RBD = SARS-CoV-2 RBD (SARS-CoV-2, UniProt P0DTC2); assay: ELISA
[1] = molecular target: bat RsSHC014 spike protein (Bat SARS-like coronavirus RsSHC014, UniProt U5WLK5); assay: ELISA

B1: DH1047 IgG (antibody, V domains shown)
VH: QVQLVQSGAEVKKPGASVQVSCQASANTFTNHYIHWVRQAPGQGLEWMGIIYPTGGNTIYAQGFQGRVTMTRDTSLNTIYLELSSLRSEDTAVYYCARDVRVDDSWSGYDLLSGGTYFDYWGQGTLVTVSS
VL: not shown
- binding result (SARS-CoV-2 RBD): binds
- binding result [1]: binds
